In article PMC3919625:

Target: 2G12 IgG monomer (human)
Test: SEC

- stoichiometry N: 3
Substance: 2G12 IgG monomer (antibody)
